We go through one molecule from patent US20220380473A1, “ANTI-GAL3 ANTIBODIES AND USES THEREOF” (TrueBinding, Inc., priority 2019, published 2022).

The subject of one experiment is hGal3 peptide. Nature of the experiment: Gal3 peptide library ELISA (Example 25). In kind it is binding, human. As to conditions: peptide array ELISA. As for the experimental part:
To identify the epitopes to which Gal3 antibodies with and without Gal3-TIM3 blocking activity bound, a library of 20 amino acid peptides representing portions of Gal3, summarized in Table 24.1, was produced and the ability to bind Gal3 antibodies was evaluated by ELISA.
At least 2 μg/ml of hGal3 peptide in 50 μl of PBS or 0.1 μg/ml of full-length human Gal3 protein (GenScript) and human Galectin-3 protein (Acro Biosystems, GA3-H5129) were diluted in PBS (Corning, 21-030-CM) to concentrations of at least 2 μg/ml or 0.1 μg/ml, respectively, and added to the wells of a 96-well ELISA plate (Thermo Fisher, 44-2404-21). After incubating the plate at 4° C. overnight, the plate was washed three times with PBST (PBS with 0.05% Tween 20 [VWR, 0777]). The plate was then blocked for an hour with 2% BSA (EMD Millipore, 126609) in PBST at room temperature with gentle rocking. Thereafter, the 2% BSA in PBST was discarded and human Galectin-3 hybridoma supernatants or antibodies were diluted in 2% BSA in PBST to concentrations of at least 0.1 μg/ml and added to the wells. The plate was incubated for an hour at room temperature with gentle rocking and then washed three times with PBST. Afterwards, Goat Anti-Mouse IgG-HRP (Jackson ImmunoResearch, 115-036-1461) or Goat Anti-Rat IgG HRP (abcam, ab205720) diluted in 2% BSA in PBST (1:4000) were added to the wells. The plate was incubated for 30 minutes to 1 hour at room temperature with gentle rocking and then washed three times with PB ST. TMB substrate (Thermo Scientific, 34029) was then added to each well. The reaction was stopped with 1M HCl (JT Baker, 5620-02) and read using a plate reader (Molecular Devices) at absorbance of 450 nm.

Experiment [1] deals with Human peripheral blood mononuclear cells (PBMCs). The experiment can be described thus: CMV antigen recall assay, IFN gamma. The experiment is classed as cell-based. As to conditions: 10 ug/ml final, CMV 4 days, vs isotype control. As for the experimental part:
To assess the ability of Gal3-targeted antibodies with Gal3-TIM-3 blocking activity to enhance T-cell mediated responses, a CMV antigen recall assay was used. Human peripheral blood mononuclear cells (PBMCs) (Astarte, donor ID 230) were quickly thawed in 37 C water bath, resuspended in 20 ml of RPMI media with 10% FBS, and centrifuged at 1500 RPM for 5 min. Media was discarded pellet resuspended in 20 ml media and counted by […], and diluted to a final concentration of 4 million/ml in Serum free Media (Lonza). 50 ul of media plus cells (200,000 cells/well) were added to 60 inner wells of a 96 well round bottom plate, and incubated at 37 C for 30 min. Antibodies were added to serum free media to a stock concentration of 4× the final concentration (40 ug/ml). 50 ul of antibodies at 4× concentration were added directly to the PBMCS and incubated at 37 C for 30 min. After PBMCs were incubated with antibodies for 30 min, 100 ul of CMV (Astarte Biologics, Cat. #1004) at 2× concentration (1 ug/ml) directly to the cells and incubated for 4 days at 37 C. On Day 4, 10 ul of cell supernatant were collected to measure human IFN gamma concentration by ELISA via a human IFN-gamma ELISA kit (Invitrogen).

Experiment [2] addresses T1, association of GAL3 and TIM3 (Homo sapiens, UniProt P17931).
T1 construct: full-length human Galectin-3 protein (Acro Biosystems, GA3-H5129); linker-spaced 6-histidine tag; purchased Acro Biosystems GA3-H5129 (Gal3); TM3-H5229 (TIM-3)
The experiment can be described thus: GAL3-TIM3 blocking ELISA (Examples 24, 27). In kind it is binding. As to conditions: 3 ug/mL antibody. As for the experimental part: Positively scoring wells were evaluated for the ability to block association of GAL3 and TIM3. To identify GAL3-targeted antibodies with the ability to block the interaction of GAL3 and TIM3, purified GAL3 and TIM3 proteins were incubated in the presence of GAL3-immunization hybridoma supernatants described above, or without antibody, and protein interaction was evaluated by ELISA. Human Galectin-3 protein (Acro Biosystems, GA3-H5129) was diluted in PBS (Corning, 21-030-CM) to a concentration of 3 μg/ml and added to the wells of a 96-well ELISA plate (Thermo Fisher, 44-2404-21). After incubating the plate at 4° C. overnight, the plate was washed three times with PBST (PBS with 0.05% Tween 20 [VWR, 0777]). The plate was then blocked for an hour with 2% BSA (EMD Millipore, 126609) in PBST at room temperature with gentle rocking. Thereafter, the 2% BSA in PBST was discarded and antibody or inhibitor (3-fold dilutions beginning at 20 μg/ml, 60 μg/ml, or 180 μM) in 2% BSA in PBST was added to the wells. Afterwards, 2 μg/ml of human TIM3 (Aero Biosystems, TM3-H5229) in 2% BSA in PBST was added to the antibody or inhibitor in the wells in a 1:1 ratio. The plate was incubated for an hour at room temperature with gentle rocking. Thereafter, the plate was washed three times with PBST, and 0.3 μg/ml of human TIM3 Biotinylated Antibody (R&D Systems, BAF2365) in 2% BSA in PBST was added to the wells. The plate was incubated for an hour with gentle rocking and then washed three times with PBST. Avidin-HRP (1:2000) was then added to the wells. The plate was incubated at room temperature for an hour with gentle rocking and then washed three times with PBST. TMB substrate (Thermo Scientific, 34029) was then added to each well. The reaction was stopped with 1M HCl (JT Baker, 5620-02) and read using a plate reader (Molecular Devices) at absorbance of 450 nm.
A general note: ELISA stands for enzyme-linked immunosorbent assay.

The test system of a further experiment is Renca cells. Nature of the experiment: Primary mouse Renca renal tumor model. The experiment is classed as in vivo. As to conditions: vs isotype control. As for the experimental part:
On the day of tumor implantation, mice were anesthetized by inhalation anesthetic (3 to 5% Isoflurane in medical grade air), Renca cells were washed and resuspended in PBS before subcutaneously injecting 2×10^5 cells in 0.1 mL, PBS using a syringe with a 25-ga needle. […] The animals were humanely sacrificed when tumor volume in the control group reached between 2000-2500 mm^3. Results were expressed as mean±SEM. The statistical analysis was performed in comparison with IgG2b control group using unpaired t test.

T1 sequence (P17931 2-250 limits assumed): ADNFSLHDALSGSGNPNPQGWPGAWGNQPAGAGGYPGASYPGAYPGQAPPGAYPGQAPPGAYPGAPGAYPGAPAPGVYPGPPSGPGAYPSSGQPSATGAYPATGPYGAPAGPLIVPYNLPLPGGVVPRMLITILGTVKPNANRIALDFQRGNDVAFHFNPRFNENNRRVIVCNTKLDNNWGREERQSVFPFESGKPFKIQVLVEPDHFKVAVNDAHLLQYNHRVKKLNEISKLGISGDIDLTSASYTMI

B1: IMT001: anti-Gal3 monoclonal antibody (Immutics); printed as mIMT001 (IMT001), murine (antibody, V domains shown)
VH: QIQLVQSGPELKKPGETVKISCKASGYTFTNYGMNWVKQAPGKGLKWMGWINTNTGEPTYVEEFKGRFAFSLETSASTAYLQINNLKNEDTATYFCAPYDNFFAYWGQGTLVTVSA
VL: DIVITQDELSNPVTSGESVSISCRSSKSLLYKDGKTYLNWFLQRPGQSPQLLIYLMSTHASGVSDRFSGSGSGTDFTLEISRVKAEDVGVYYCQQLVDYPLTFGAGTKLELK
Take B1: the Gal3 peptide bound entry with hGal3 peptide was “peptide 6”. For the same molecule, the interferon-gamma secretion entry in experiment [1] was “significantly increased levels”. In addition, the “GAL3-TIM3 Blocking @ 3 ug/mL” value in experiment [2] stood at 80%. Besides, the “reduction of tumor growth” value in the experiment with Renca cells (10 mg/Kg i.p.) is on record as “about 35%”. The “effect on tumor size” value in the experiment on Renca cells is reported as “much reduced tumor size”.
